Measurements taken from patent US20200270347A1.

Columns and labels:
Assay in all cases: SPR, TYRP1 ECD-Fc captured with anti-PGLALA antibody, 1:1 Langmuir
[1] = molecular target: Mouse TYRP1 ECD-Fc(knob)-Avi / Fc(hole) (mouse) [IgG part: P01857]
[2] = molecular target: Human TYRP1 ECD-Fc(knob)-Avi / Fc(hole) (human) [IgG part: P01857]
[3] = molecular target: Cynomolgus TYRP1 ECD-Fc(knob)-Avi / Fc(hole) (cynomolgus) [IgG part: P01857]

- Kd [1]: 0.31 nM
- Kd [2]: 0.09 nM
- Kd [3]: 0.12 nM
Substance: parental TA99 antibody (Fab)
